Test results from patent US5434135A, “Growth factor compositions, preparation and use” (Parikh; Indu, priority 1993, dated 1995).

Tests used:
trypsin [1] = conditions: 3% trypsin, after one hour
trypsin [2] = test: in vitro; conditions: 1% trypsin
[3] = at one hour
Procedure: At the indicated times aliquots were withdrawn and the amount of intact parent peptide was determined as the area under the curve (AUC) of the A214 (absorbance at 214 nanometers) chromatogram;

With `CC[C@H](C)[C@@H]1NC(=O)[C@H](Cc2ccc(O)cc2)NC(=O)CNC(=O)[C@H](C(C)C)NC(=O)[C@H](C(C)C)NC(=O)[C@@H](NC(=O)[C@H](CC(N)=O)NC(=O)[C@@H]2CSSC[C@@H]3NC(=O)[C@H](Cc4ccc(O)cc4)NC(=O)CNC(=O)[C@H](CC(=O)O)NC(=O)[C@H](Cc4c[nH]cn4)NC(=O)[C@H](CO)NC(=O)[C@H](CC(C)C)NC(=O)[C@@H]4CCCN4C(=O)[C@@H](NC(=O)[C@H](CCC(=O)O)NC(=O)[C@H](CO)NC(=O)[C@H](CC(=O)O)NC(=O)[C@H](CO)NC(=O)[C@@H](N)CC(N)=O)CSSC[C@H](NC(=O)[C@H](C(C)C)NC(=O)CNC(=O)[C@H](CC(=O)O)NC(=O)[C@H](Cc4c[nH]cn4)NC(=O)[C@H](CC(C)C)NC3=O)C(=O)N[C@@H](CCSC)C(=O)N[C@@H](Cc3ccc(O)cc3)C(=O)N[C@@H]([C@@H](C)CC)C(=O)N[C@@H](CCC(=O)O)C(=O)N[C@@H](C)C(=O)N[C@@H](CC(C)C)C(=O)N[C@@H](CC(=O)O)C(=O)N[C@@H](CCCCN)C(=O)N[C@@H](Cc3ccc(O)cc3)C(=O)N[C@@H](C)C(=O)N2)CSSC[C@@H](C(=O)N[C@@H](CCC(N)=O)C(=O)N[C@@H](Cc2ccc(O)cc2)C(=O)N[C@@H](CCCNC(=N)N)C(=O)N[C@@H](CC(=O)O)C(=O)N[C@@H](CC(C)C)C(=O)N[C@@H](CCCCN)C(=O)N[C@@H](Cc2c[nH]c3ccccc23)C(=O)N[C@@H](Cc2c[nH]c3ccccc23)C(=O)N[C@@H](CCC(=O)O)C(=O)N[C@@H](CC(C)C)C(=O)N[C@@H](CCCNC(=N)N)C(=O)O)NC(=O)[C@H](CCCNC(=N)N)NC(=O)[C@H](CCC(=O)O)NC(=O)CNC1=O` [hEGF1-53] the degradation in trypsin (trypsin [1]) was 90-100%, the metabolised at 1 h (trypsin [2]) was ~50% and the “degradation in gastric fluid” value [3] was “approaching almost complete degradation”.
